Data set [1] deals with T1, hexYME1L (human) (UniProt Q96TA2).
T1 sequence: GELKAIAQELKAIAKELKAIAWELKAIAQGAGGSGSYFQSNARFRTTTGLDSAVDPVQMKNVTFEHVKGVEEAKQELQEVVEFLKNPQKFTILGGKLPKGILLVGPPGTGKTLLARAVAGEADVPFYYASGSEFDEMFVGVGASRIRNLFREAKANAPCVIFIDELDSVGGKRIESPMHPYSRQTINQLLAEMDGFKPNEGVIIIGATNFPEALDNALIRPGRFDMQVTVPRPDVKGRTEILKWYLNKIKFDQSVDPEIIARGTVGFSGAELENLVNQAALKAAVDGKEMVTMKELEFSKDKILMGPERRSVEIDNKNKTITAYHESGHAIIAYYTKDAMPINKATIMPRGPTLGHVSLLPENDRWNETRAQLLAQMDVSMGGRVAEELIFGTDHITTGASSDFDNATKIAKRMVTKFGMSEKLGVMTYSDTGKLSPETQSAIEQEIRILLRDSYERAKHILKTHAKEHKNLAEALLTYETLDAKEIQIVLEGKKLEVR

Data set [2] deals with T1, hexYME1L (human). This is another data set of the same source.
Data set [3] concerns the molecule itself. Briefly: SEC; analytical SEC, Superose 6 Increase 10/300 GL; 1 mg of protein in 200 μl; 50 mM Tris-HCl (pH 8.0), 100 mM NaCl, 0.5 mM TCEP; hexYME1L also with 5 mM EDTA or with ATPγS and MgCl2 (no change in migration).
Data set [4] concerns the target T1, hexYME1L (human). This is another data set of the same source.
Substrate in the data set “purified protein”: Nc1ncnc2c1ncn2[C@@H]1O[C@H](COP(=O)(O)OP(=O)(O)OP(=O)(O)O)[C@@H](O)[C@H]1O
Put plainly: purified protein. As to conditions: Hill form of Michaelis-Menten equation, MgCl2 5 mM, pH 8.0, 37 °C, no protein substrate.

As to “I27 domain of human titin (domain or fragment)”, the stimulation of the ATPase rate of hexYME1L (0.25 μM) by 20 μM substrate (not significant) with hexYME1L (human) [1] was found to be 6%.

With “carboxymethylated I27 domain of human titin (domain or fragment)”, in the data set with hexYME1L (human) [1], the stimulation of the ATPase rate of hexYME1L (0.25 μM) by 20 μM substrate (not significant) stood at 14%.

With cp7-^SFGFP-ssrA, the KM of ATP-dependent degradation by hexYME1L (1 μM), loss of GFP fluorescence, 37 °C in the data set with hexYME1L (human) [2] is 12 µM.

Turning to cp7-^SFGFP-sul20C, the KM of ATP-dependent degradation by hexYME1L (1 μM), loss of GFP fluorescence, 37 °C in the data set with hexYME1L (human) [2] amounted to 15.2 µM.

B1: hexYME1L (enzyme, human)
chain: T1 sequence
notes: cc-hex, de novo designed peptide that forms a hexameric coiled coil; replaces the N-terminal domain and transmembrane span of YME1L; 10-residue linker between cc-hex and YME1L-AP; human YME1L isoform 1, AAA+ ATPase domain and M41 protease domain, residues 317-773; also called hexYME1L-AP; hexameric YME1L; source: E. coli BL21 (DE3), purified (glutathione agarose, TEV cleavage, Ni-NTA, SEC); not …
One may read the stoichiometry N as a count of units in the complex or per binding partner. Regarding B1, the “stoichiometry N” value in data set [3] is roughly 6.

B2: β-casein (natural protein)
chain: RELEELNVPGEIVESLSSSEESITRINKKIEKFQSEEQQQTEDELQDKIHPFAQTQSLVYPFPGPIPNSLPQNIPPLTQTPVVVPPFLQPEVMGVSKVKEAMAPKHKEMPFPKYPVEPFTESQSLTLTDVENLHLPLPLLQSWMHQPHQPLPPTVMFPPQSVLSLSQSKVLPVPQKAVPYPQRDMPIQAFLLYQEPVLGPVRGPFPIIV
Regarding B2, the initial rate of ATP-dependent degradation of β-casein (20 μM) by hexYME1L (1 μM), SDS-PAGE (β-casein molecules min^−1 enz6^−1) with hexYME1L (human) [4] was 0.49.

B3: hexYME1L (Homo sapiens) (protein)
chain: RFRTTTGLDSAVDPVQMKNVTFEHVKGVEEAKQELQEVVEFLKNPQKFTILGGKLPKGILLVGPPGTGKTLLARAVAGEADVPFYYASGSEFDEMFVGVGASRIRNLFREAKANAPCVIFIDELDSVGGKRIESPMHPYSRQTINQLLAEMDGFKPNEGVIIIGATNFPEALDNALIRPGRFDMQVTVPRPDVKGRTEILKWYLNKIKFDQSVDPEIIARGTVGFSGAELENLVNQAALKAAVDGKEMVTMKELEFSKDKILMGPERRSVEIDNKNKTITAYHESGHAIIAYYTKDAMPINKATIMPRGPTLGHVSLLPENDRWNETRAQLLAQMDVSMGGRVAEELIFGTDHITTGASSDFDNATKIAKRMVTKFGMSEKLGVMTYSDTGKLSPETQSAIEQEIRILLRDSYERAKHILKTHAKEHKNLAEALLTYETLDAKEIQIVLEGKKLEVR
For B3, the K0.5 in the data set “purified protein” came out at 1.4 mM.

The values are drawn from article PMC5095350, “Engineered AAA+ proteases reveal principles of proteolysis at the mitochondrial inner membrane” (Nature Communications, 2016).
